Test results reported in patent publication US20160152703A1 (PERSEUS PROTEOMICS, published 2016).
Positions count from the first letter of the chain named.

B1: PPAT-076-44Hd (antibody, V domains shown)
VH: QVQLVESGGGVVQPGRSLRLSCAASGFSLTSYGVHWVRQAPGKGLEWVGVIWSGGSTDYADSVKGRFTISKDNSKNTVYLQMNSLRAEDTAVYYCARNSNNGFAYWGQGTLVTVSS
VL: DIQLTQSPSSLSASVGDRVTITCRASQNIYSNLAWYQQKPGKAPKLLVYAAKNLASGVPSRFSGSGSGTDFTLTISSLQPEDFATYYCQHFYDTPWTFGQGTKVEIK
notes: also called anti-CDH3 humanized antibody (human germline framework, reshaped); humanized antibody
B2: PPAT-076-44Hb (antibody, V domains shown)
VH: B1 VH with Q1E, V11L, R16G, G49A
VL: B1 VL with L4M
notes: also called anti-CDH3 humanized antibody (human consensus framework, reshaped)
B3: PPAT-076-44Hd, to which a drug is bound (DM1 conjugate) (antibody, human IgG1, V domains shown)
VH: B1 VH
VL: B1 VL
modifications: DM1 bound through Sulfo-SMCC; sites not stated
notes: Human IgG1/kappa; also called CDH3 antibody drug conjugate of PPAT-076-44Hd; drug conjugate of PPAT-076-44Hd
B4: PPAT-076-44Hb, to which a drug is bound (DM1 conjugate) (antibody, human IgG1, V domains shown)
VH: B1 VH with Q1E, V11L, R16G, G49A
VL: B1 VL with L4M
modifications: DM1 bound through Sulfo-SMCC; sites not stated
notes: Human IgG1/kappa; also called CDH3 antibody drug conjugate of PPAT-076-44Hb; humanized antibody drug conjugate

Legend:
[1] = target: T1, full-length human CDH3 with myc-His tag, forcibly expressed on CHO cells (EXZ1501) (human, UniProt P22223 108-829); test: flow cytometry on CHO cells with forcible expression of CDH3
T1 construct: Clones were selected by Western blotting with an anti-c-Myc antibody; also called CDH3 full-length expression CHO cell line (EXZ1501); CHO cells with forcible expression of CDH3; not shown: C-terminal myc-His tag from vector pEF4/myc-HisB

[2] = target: T2, human CDH3 (P-cadherin), endogenous, on cancer cells (human, UniProt P22223 108-829); test: FACS competition on a CDH3-expressing cell line; competitor: Alexa488-labeled NITE BP-989 antibody
T2 construct: Endogenous CDH3 on NCI-H358 and other human cancer cells or tissues; also called CDH3 on NCI-H358; CDH3-expressing cancer cell line

[3] = target: T2, human CDH3 (P-cadherin), endogenous, on …; test: flow cytometry on NCI-H358 cells, antibody at 10 ug/mL
Method: A cell line that would be used as a reaction target (an NCI-H358 cell line that had been confirmed to express CDH3 at a high level) was treated with 2 mM EDTA-PBS, so that the cells were removed from a culture plate, and the obtained cells were then suspended in a FACS solution to a cell density of 1×10⁶ cells/mL. This cell suspension was seeded on a 96-well plate, resulting in an amount of 50 μL/well, and the purified chimeric antibody was then added to the plate to result in a concentration of 10 μg/mL, followed by performing a reaction at 4° C. for 60 minutes. Thereafter, the reaction mixture was washed with a FACS solution (150 μL/well) two times, and 4 μg/ml AlexaFlour488-labeled anti-human IgG/goat F(ab′)₂ (Invitrogen) was then added to the resultant. The obtained mixture was reacted at 4° C. for 30 minutes. Thereafter, the cells were washed with a FACS solution two times, and was then subjected to flow cytometry.

[4] = target: T2, human CDH3 (P-cadherin), endogenous, on …; test: FACS competition on NCI-H358; competitor: Alexa488-labeled NITE BP-989 antibody; IC50 relative to the antibody without drug, average DAR 0 to 8
Method: The influence of humanization on affinity was confirmed by carrying out a competition test using a flow cytometer (FACS). A test antibody whose dilution series had been prepared, a cell line that expressed CDH3, and a certain amount of Amaxa488-labeled antibody that was competitive with the test antibody were allowed to coexist, and the reaction was then carried out at room temperature for 1 hour. Thereafter, the reaction product was washed with a FACS solution, and FACS measurement was then carried out. […] The obtained IC50 value was defined as an index for affinity.
The influence of the average drug-to-antibody ratio (DAR) of the drug binding to the humanized antibody of the present invention on affinity was confirmed by the same competition test using FACS as that in Example 25. The antibody drug conjugate was prepared in the range of average DAR of 0 to 8 by the method described in Example 15. The DAR was quantified by the method described in Example 16.
As a cell line, NCI-H358 was used. […] By the same FACS competition test as that described in Example 25, each IC50 value was calculated as an index for affinity.

T2 sequence (P22223 108-829 limits assumed): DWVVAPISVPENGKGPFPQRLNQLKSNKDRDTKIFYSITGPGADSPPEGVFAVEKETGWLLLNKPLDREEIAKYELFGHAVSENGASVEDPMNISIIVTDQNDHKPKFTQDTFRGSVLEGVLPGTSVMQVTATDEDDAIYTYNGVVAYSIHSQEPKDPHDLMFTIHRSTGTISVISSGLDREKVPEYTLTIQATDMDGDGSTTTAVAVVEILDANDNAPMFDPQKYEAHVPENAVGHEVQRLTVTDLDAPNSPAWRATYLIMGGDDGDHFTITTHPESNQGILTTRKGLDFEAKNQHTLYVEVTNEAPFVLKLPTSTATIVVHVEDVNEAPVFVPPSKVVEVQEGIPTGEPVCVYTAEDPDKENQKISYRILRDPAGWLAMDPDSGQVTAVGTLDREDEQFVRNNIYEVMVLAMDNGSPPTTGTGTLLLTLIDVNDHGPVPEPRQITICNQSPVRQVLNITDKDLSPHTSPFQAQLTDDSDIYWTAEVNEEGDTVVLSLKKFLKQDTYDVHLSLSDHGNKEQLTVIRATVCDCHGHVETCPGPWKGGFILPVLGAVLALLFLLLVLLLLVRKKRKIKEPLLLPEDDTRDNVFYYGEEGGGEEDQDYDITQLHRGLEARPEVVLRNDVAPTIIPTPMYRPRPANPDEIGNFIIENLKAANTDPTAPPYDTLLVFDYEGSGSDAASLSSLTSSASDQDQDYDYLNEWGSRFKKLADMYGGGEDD
T1 sequence (P22223 108-829): as the sequence (P22223 108-829 limits assumed) above

Row | Binder | binding result [1] | binding result [2] | binding result [3] | binding result [4]
1 | B1 | binds | binds |  | 
2 | B2 | binds |  | binds | 
3 | B3 |  |  |  | binds
4 | B4 |  |  |  | binds
